Data: patent US20250361314A1 (SHANGHAI HUAOTA BIOPHARMACEUTICAL, published 2025)

T1: Human CD39 antigen (human, UniProt P49961 38-478)
T1 construct: Antigen used as analyte in SPR; also called ENTPD1
T1 sequence (looked up): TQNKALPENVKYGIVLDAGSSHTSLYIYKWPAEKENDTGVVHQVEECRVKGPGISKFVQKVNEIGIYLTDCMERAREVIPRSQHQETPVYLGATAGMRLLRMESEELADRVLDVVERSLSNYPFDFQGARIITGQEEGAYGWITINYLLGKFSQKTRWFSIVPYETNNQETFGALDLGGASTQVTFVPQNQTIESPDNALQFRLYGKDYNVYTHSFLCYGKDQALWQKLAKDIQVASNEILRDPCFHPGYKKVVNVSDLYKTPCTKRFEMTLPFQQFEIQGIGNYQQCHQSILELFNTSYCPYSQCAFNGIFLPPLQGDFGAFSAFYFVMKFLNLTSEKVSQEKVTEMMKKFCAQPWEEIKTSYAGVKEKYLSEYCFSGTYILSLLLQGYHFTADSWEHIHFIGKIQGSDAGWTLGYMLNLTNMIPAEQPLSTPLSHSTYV

T2: Human CD39 on CHOK1-huCD39-10B6 cells overexpressing CD39 (human, UniProt P49961 1-510)
T2 sequence (looked up): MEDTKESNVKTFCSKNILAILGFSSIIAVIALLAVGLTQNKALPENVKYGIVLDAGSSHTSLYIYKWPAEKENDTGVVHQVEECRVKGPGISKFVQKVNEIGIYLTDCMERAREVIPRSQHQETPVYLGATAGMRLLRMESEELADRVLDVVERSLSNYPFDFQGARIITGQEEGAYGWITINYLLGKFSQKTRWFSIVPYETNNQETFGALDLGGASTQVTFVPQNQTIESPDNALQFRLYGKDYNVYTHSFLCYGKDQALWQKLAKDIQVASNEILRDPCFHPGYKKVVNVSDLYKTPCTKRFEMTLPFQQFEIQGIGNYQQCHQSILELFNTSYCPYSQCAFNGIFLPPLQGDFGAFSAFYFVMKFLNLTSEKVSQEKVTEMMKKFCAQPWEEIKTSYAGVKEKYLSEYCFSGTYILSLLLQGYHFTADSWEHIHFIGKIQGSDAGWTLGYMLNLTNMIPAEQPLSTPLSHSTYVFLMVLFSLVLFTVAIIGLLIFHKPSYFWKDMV

T3: Human CD73 antigen (human, UniProt P21589 27-547, limits assumed)
T3 construct: Antigen used as analyte in SPR; also called NT5E
T3 sequence (looked up): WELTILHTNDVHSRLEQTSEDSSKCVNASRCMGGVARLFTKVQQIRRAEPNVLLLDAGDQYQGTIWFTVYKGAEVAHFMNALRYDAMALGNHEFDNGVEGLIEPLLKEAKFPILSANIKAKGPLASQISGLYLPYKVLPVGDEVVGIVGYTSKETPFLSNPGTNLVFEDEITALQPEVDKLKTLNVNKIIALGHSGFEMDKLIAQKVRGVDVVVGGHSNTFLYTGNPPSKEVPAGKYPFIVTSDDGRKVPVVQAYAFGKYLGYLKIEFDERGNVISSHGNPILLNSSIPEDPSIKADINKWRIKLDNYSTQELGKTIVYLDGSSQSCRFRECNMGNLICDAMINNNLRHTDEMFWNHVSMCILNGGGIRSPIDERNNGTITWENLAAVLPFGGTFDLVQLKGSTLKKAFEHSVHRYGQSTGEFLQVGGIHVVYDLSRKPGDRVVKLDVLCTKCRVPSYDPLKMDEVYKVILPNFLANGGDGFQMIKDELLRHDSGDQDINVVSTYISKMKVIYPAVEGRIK

T4: Human CD73 on CHOK1-huCD73-3F4 cells overexpressing CD73 (human, UniProt P21589 27-549)
T4 sequence (looked up): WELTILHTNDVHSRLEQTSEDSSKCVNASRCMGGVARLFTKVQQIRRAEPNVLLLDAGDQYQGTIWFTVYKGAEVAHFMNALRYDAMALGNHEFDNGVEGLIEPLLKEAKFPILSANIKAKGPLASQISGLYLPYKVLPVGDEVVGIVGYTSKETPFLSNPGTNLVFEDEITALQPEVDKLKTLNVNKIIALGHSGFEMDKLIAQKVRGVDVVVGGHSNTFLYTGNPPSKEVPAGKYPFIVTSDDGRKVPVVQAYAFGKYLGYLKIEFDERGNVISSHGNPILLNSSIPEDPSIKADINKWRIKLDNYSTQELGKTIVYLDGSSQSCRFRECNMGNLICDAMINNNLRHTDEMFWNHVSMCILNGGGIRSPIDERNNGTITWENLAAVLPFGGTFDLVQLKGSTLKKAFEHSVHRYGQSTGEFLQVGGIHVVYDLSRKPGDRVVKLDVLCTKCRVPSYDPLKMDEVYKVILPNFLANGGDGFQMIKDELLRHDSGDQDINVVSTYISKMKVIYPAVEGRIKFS

B1: 700053 (CD39 nanobody) (VHH)
VHH: QVQLVESGGGLVQPGGSLRLSCAASGSISSIAAMGWYRQAPGKERELVAAITSGGNTNLADSTKGRFTISRDNTKNTVYLQMNSLKPEDTAVYYCNAWGEDDSSWFGTDLCDYWGQGTQVTVSS
notes: In the SPR it was captured on an anti-human antibody capture chip, so the tested construct may carry a human Fc
B2: 900698 (CD73 parental monoclonal antibody corresponding to 700038) (antibody, human IgG1, kappa, L234A L235A, V domains shown)
VH: QVQLVESGGGLVKPGGSLRLSCAASGFTFSKYAMSWIRQAPGKGLEWVAEISSGGGYINYADSVKGRFTISRDNAKNSLYLQMNSLRAEDTAVYYCARAIYYYGSSYNYYAMDYWGQGTTVTVSS
VL: DIQMTQSPSSLSASVGDRVTITCRASQDVGTAEAWYQQKPGKAPKLLIYWASTRHTGVPSRFSGSGSGTDFTLTISSLQPEDFATYYCQQYSSYPLTFGQGTKLEIKR
B3: 900725 (CD73 parental monoclonal antibody corresponding to 700035) (antibody, human IgG1, kappa, L234A L235A, V domains shown)
VH: QVQLVQSGAEVKKPGASVKLSCKASGYTFTSYWIHWVRQAPGQGLEWIGMIHPNSGSTYYNEKFKGRATLTVDKSTSTAYMELSSLRSEDTAVYYCARYYGSDYEWYFDVWGQGTTVTVSS
VL: DIQMTQSPSSMSASVGDRVTITCKASQNVRTAVVWYQQKPGKAPKALIYLASNRHTGVPDRFSGSGSGTDFTLTISSLQPEDFATYFCLQHWNYPYTFGQGTKLEIKR

Assays:
[1] = target: T1, Human CD39 antigen; experiment: SPR (Biacore 8K), antibody captured on anti-human capture CM5 chip, antigen as analyte, 1:1 model
Experimental: (§1) An Anti-Human Capture-CM5 chip (GE, #BR-1005-30) was prepared using coupling methods of a Human Antibody Capture Kit (GE, #BR-1008-39) and an amino coupling kit (GE, BR-1000-50). The chip was equilibrated at room temperature for 20-30 mins and loaded into a Biacore 8K instrument. The antigen and antibody were diluted to an experimental working concentration using an equilibration buffer. The antigens were diluted with the equilibrium buffer to 50 nM, and then diluted three-fold for seven concentration gradients, and two zero concentrations (i.e., the equilibrium buffer) and one repeat concentration (typically the lowest concentration repeat) were set. Experimental analysis was performed on 10 antigen concentrations (2 zero concentrations, 7 gradient concentrations, and 1 repeated concentration) in a cyclic manner according to an order of antibody, antigen, and regeneration. The antigen injection flow rate was 30 μL/min, the binding time was 120 s, and the dissociation time was 600 s. Following the analysis, the data was analyzed using the corresponding analysis program to confirm that there was no obvious reference binding. Using Kinetics and a 1:1 binding model, the data was fit to obtain the kinetic related parameters Ka, Kd, and KD values of the bispecific antibodies and parental control antibodies.

[2] = target: T2, Human CD39 on CHOK1-huCD39-10B6 cells …; experiment: cell-based or functional assay
[3] = target: T3, Human CD73 antigen; experiment: SPR (Biacore 8K), antibody captured on anti-human capture CM5 chip, antigen as analyte, 1:1 model
Experimental: as §1

[4] = target: soluble recombinant protein CD73; experiment: cell-based or functional assay
[5] = target: T4, Human CD73 on CHOK1-huCD73-3F4 cells …; experiment: cell-based or functional assay

soluble recombinant protein CD73, sequence (P21589 whole entry): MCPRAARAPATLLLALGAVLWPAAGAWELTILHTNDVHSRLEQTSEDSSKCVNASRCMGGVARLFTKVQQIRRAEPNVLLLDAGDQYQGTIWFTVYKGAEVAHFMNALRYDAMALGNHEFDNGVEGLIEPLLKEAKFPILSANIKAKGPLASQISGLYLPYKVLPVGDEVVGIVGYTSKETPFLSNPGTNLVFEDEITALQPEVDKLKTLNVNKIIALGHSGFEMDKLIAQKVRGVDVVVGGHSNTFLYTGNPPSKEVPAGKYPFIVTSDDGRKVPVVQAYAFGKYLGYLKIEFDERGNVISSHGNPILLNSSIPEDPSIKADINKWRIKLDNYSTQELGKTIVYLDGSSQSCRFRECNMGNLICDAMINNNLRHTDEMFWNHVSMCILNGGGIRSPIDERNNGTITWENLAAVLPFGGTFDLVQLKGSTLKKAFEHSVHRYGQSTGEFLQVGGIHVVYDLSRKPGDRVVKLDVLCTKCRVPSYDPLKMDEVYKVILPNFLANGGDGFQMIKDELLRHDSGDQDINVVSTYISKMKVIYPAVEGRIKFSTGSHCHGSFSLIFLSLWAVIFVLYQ

Row | Binder | Kd [1] [pM] | koff [1] [s⁻¹] | kon [1] [M⁻¹ s⁻¹] | EC50 (µg/mL), inhibition of CD39 ATPase activity on CHOK1-huCD39-10B6 cells (CellTiter Glo) [2] [µg/mL] | Kd [3] [pM] | koff [3] [s⁻¹] | kon [3] [M⁻¹ s⁻¹] | EC50 (µg/mL), inhibition of enzyme activity of soluble CD73 protein (CellTiter Glo) [4] [µg/mL] | EC50 (µg/mL), inhibition of enzyme activity of membrane CD73 on CHOK1-huCD73-3F4 cells (CellTiter Glo) [5] [µg/mL]
1 | B1 | 140 | 0.000102 | 730000 | 0.558 |  |  |  |  | 
2 | B2 |  |  |  |  | 382 | 0.000215 | 561000 | 1.74 | 
3 | B3 |  |  |  |  | 184 | 0.000182 | 988000 |  | 0.32
